Among the data in patent US20160368965A1 (IMMATICS BIOTECHNOLOGIES, published 2016) are peptide exchange yield values, retold here.

This test concerns the target T1, HLA-A*02:01 (human).
T1 construct: the tested peptide takes its place; also called peptide-receptive MHC molecules; MHC class I
Briefly: UV-ligand exchange, anti-β2m ELISA; grade of peptide exchange yield. The essentials:
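Yield was graded by sandwich ELISA: streptavidin-captured complexes, diluted 100-fold, were probed with HRP-conjugated anti-β2m, developed with TMB and read at 450 nm versus refolded monomer standards of 15-500 ng/ml. Complexes arose by UV-triggered replacement of a UV-sensitive peptide with the test peptide.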
For ALESFLKQV [ALESFLKQV (SEQ ID NO: 99)], the peptide exchange yield was 50 to 75%.

For YLTNEGIAHL [YLTNEGIAHL (SEQ ID NO: 92)], the peptide exchange yield is no less than 75%.

Turning to ALFGAGPASI [ALFGAGPASI (SEQ ID NO: 100)], the peptide exchange yield was in the range of 50 to 75%.

As to ALDQKVRSV [ALDQKVRSV (SEQ ID NO: 98)], the peptide exchange yield lay within 20 to 50%.

VMMEEFVQL [VMMEEFVQL (SEQ ID NO: 94)]: the peptide exchange yield fell in the range of 50 to 75%.

Molecule QIIDAINKV [QIIDAINKV (SEQ ID NO: 9)] had a peptide exchange yield of 20 to 50%.

ALDDMISTL [ALDDMISTL (SEQ ID NO: 97)]: the peptide exchange yield is 50 to 75%.

The molecule AVAAVLTQV [AVAAVLTQV (SEQ ID NO: 103)] displayed a peptide exchange yield of 50 to 75%.

For the molecule KLLTPITTL [KLLTPITTL (SEQ ID NO: 90)], the peptide exchange yield was 50 to 75%.

In the case of ALAPATGGGSLLL [ALAPATGGGSLLL (SEQ ID NO: 96)], the peptide exchange yield was in the range of 50 to 75%.

ALVEENGIFEL [ALVEENGIFEL (SEQ ID NO: 101)]: the peptide exchange yield was 50 to 75%.

With ALYPGTDYTV [ALYPGTDYTV (SEQ ID NO: 102)], the peptide exchange yield lay within 50 to 75%.

In turn, SIDSEPALV [SIDSEPALV (SEQ ID NO: 93)] had a peptide exchange yield of 50 to 75%.

LLFNDVQTL [LLFNDVQTL (SEQ ID NO: 91)]: the peptide exchange yield was 50 to 75%.

Consider ALADDDFLTV [ALADDDFLTV (SEQ ID NO: 95)], for which the peptide exchange yield lay within 50 to 75%.

KLADIQIEQL [KLADIQIEQL (SEQ ID NO: 89)]: the peptide exchange yield was in the range of 50 to 75%.
